This is an account of results in patent US20190248876A1 (NEW YORK UNIVERSITY, published 2019).

In assay [1] the target is T1, CXCR1 (interleukin 8 receptor alpha chain) (human, UniProt P25024 1-350).
T1 construct: whole, on cells
T1 sequence: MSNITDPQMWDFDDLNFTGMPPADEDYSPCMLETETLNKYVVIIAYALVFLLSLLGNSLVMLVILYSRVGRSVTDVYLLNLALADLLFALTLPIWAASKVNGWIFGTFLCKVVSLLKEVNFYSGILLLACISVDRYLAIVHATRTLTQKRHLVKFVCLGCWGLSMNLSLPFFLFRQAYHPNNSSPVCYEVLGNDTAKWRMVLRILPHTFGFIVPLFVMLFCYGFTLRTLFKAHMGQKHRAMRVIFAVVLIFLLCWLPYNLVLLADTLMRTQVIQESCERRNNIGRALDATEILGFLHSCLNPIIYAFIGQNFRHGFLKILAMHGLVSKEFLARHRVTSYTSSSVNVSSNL
Put plainly: flow cytometry, GFP-toxin on primary human PMNs (CXCR1/CXCR2+ cells).

Assay [2] has as its target T2, CXCR2 (interleukin 8 receptor beta chain) (human, UniProt P25025 1-360).
T2 construct: whole, on cells
T2 sequence: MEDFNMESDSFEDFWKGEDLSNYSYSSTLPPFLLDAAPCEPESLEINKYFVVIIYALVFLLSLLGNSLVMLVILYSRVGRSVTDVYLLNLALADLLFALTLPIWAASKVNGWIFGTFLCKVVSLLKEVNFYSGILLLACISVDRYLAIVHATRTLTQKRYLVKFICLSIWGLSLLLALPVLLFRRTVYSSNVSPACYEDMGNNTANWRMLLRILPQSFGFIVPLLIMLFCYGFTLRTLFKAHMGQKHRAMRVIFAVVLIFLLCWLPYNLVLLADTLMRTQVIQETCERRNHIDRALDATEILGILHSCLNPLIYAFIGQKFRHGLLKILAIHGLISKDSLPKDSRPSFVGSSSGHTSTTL
The description is as above.

Assay [3] deals with T1, CXCR1 (interleukin 8 receptor alpha …). Put plainly: legend of FIGS. 6A-6E: flow cytometry on PMNs and pulldown. (In general: A flow cytometer gives signals particle by particle.)
Assay [4] concerns the target T2, CXCR2 (interleukin 8 receptor beta …). Described as above.

B1: GFP-LukE (green fluorescent protein-fused LukE) (other)
chain: NTNIENIGDGAEVIKRTEDVSSKKWGVTQNVQFDFVKDKKYNKDALIVKMQGFINSRTSFSDVKGSGYELTKRMIWPFQYNIGLTTKDPNVSLINYLPKNKIETTDVGQTLGYNIGGNFQSAPSIGGNGSFNYSKTISYTQKSYVSEVDKQNSKSVKWGVKANEFVTPDGKKSAHDRYLFVQSPNGPTGSAREYFAPDNQLPPLVQSGFNPSFITTLSHEKGSSDTSEFEISYGRNLDITYATLFPRTGIYAERKHNAFVNRNFVVRYEVNWKTHEIKVKGHN
notes: also called LukE-GFP
For B1, the binding result in assay [1] and in assay [2] was “binds” in each case.

B2: His-LukE (N-terminal 6xHis-tagged Leukocidin E, S. aureus Newman) (other)
chain: B1 chain
Regarding B2, the binding result in assay [3] and in assay [4] was “binds” each time.
